Target: coatomer (COPI heptamer) (Mus musculus) (UniProt Q8CIE6)
Test: cryo-EM structure; cryo-electron tomography and subtomogram averaging of COPI-coated vesicles and buds from an in vitro budding reaction: liposomes with 3 mol % PI4P (0.23 mg/ml), GTPγS 0.5 mM, COPI 1.36 μM, Arf1 20 μM, ARNO 4 μM, GOLPH3 9 μM; 50 mM Hepes pH 7.2, 125 mM KOAc, 30 min at 37°C; 7.5 Å map, model by rigid body fitting of domains from AlphaFold 3 predictions

Sequence of Arf1 (P84077 whole entry, the tested form may be a part): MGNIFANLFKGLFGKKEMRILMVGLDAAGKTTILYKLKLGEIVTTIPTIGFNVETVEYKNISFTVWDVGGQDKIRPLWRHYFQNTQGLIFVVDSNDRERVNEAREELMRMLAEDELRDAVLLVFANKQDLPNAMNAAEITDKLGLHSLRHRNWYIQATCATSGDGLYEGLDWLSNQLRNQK

stoichiometry N (per COPI heptamer): 2
Substance: Arf1 (from UniProt P84077 1-181) (natural protein)
